Measurements taken from publication PMC8982139.

Key:
[1] = target: C.1086 NFL (native flexibly linked, with I559P) gp140 trimer (HIV-1 (clade C, C.1086)); test: SEC
[2] = target: C.1086 SOSIP gp140 (HIV-1 (clade C, C.1086)); test: SEC
[3] = target: C.1086 UFO-v2 gp140 trimer (UFO with E64K/T316W/A433P) (HIV-1 (clade C, C.1086)); test: SEC
[4] = target: C.1086 UFO-v2-RQH^173 gp140 trimer (UFO-v2 with K166R/H170Q, H173 kept) (HIV-1 (clade C, C.1086)); test: native gel or EMSA
[5] = target: C.1086 UFO-v2-RQH^173 gp140 trimer (UFO-v2 with K166R/H170Q, H173 kept) (HIV-1 (clade C, C.1086)); test: SEC
[6] = target: C.1086 UFO-v2-RQH^173 gp140 trimer (UFO-v2 with K166R/H170Q, H173 kept) (HIV-1 (clade C, C.1086)); test: negative-stain electron microscopy
[7] = target: C.1086 UFO-v2-RQY^173 gp140 trimer (UFO-v2 with K166R/H170Q/H173Y) (HIV-1 (clade C, C.1086)); test: native gel or EMSA
[8] = target: C.1086 UFO-v2-RQY^173 gp140 trimer (UFO-v2 with K166R/H170Q/H173Y) (HIV-1 (clade C, C.1086)); test: negative-stain electron microscopy

C.1086 NFL (native flexibly linked, with I559P) gp140 trimer
stoichiometry N [1]: 3

C.1086 SOSIP gp140
stoichiometry N [2]: 3

C.1086 UFO-v2 gp140 trimer (UFO with E64K/T316W/A433P)
stoichiometry N [3]: 3

C.1086 UFO-v2-RQH^173 gp140 trimer (UFO-v2 with K166R/H170Q, H173 kept)
stoichiometry N [4]: 3 | stoichiometry N [5]: 3 | stoichiometry N [6]: 3

C.1086 UFO-v2-RQY^173 gp140 trimer (UFO-v2 with K166R/H170Q/H173Y)
stoichiometry N [7]: 3 | stoichiometry N [8]: 3
